The source of these data is patent US20170218081A1.

Broadly, the Kd is the constant that tells how readily two partners part at equilibrium.

The test deals with Bovine submaxillary mucin (bovine). Briefly: SPR, BSM immobilised on CM5 chip. For orientation: SPR reads the build-up and loss of mass on a sensor chip optically.

CC49.scFv returned a Kd of 30 nM.
